For 1 substance, rate of binding to FOG-1 and relative affinity against wild-type GATA-1 (fold less) results are on record in publication PMC4699388.

Assay [1] addresses GATA-1^S310A (human) (UniProt P15976). The experiment in a line: co-IP.
The target is the same in assay [2].

Chain of UniProt P15976 (P15976 whole entry S310A): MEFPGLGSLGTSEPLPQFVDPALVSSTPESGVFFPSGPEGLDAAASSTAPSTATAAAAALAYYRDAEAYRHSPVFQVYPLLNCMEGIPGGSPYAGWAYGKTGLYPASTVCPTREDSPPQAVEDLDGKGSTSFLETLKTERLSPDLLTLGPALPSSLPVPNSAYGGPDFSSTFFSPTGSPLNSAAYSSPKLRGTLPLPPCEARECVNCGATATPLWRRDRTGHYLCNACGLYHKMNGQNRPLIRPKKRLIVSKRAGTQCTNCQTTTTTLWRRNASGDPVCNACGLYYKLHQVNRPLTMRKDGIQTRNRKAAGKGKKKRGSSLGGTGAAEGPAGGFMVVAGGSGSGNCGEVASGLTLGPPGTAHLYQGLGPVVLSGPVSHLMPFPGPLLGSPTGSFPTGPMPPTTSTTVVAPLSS

The substance “FOG-1 (mouse), in NIH-3T3 cells (from UniProt O35615 1-995) (natural protein)” registered a rate of binding to FOG-1 with GATA-1^S310A (human) [1] of 62. Moreover, the relative affinity against wild-type GATA-1 (fold less) with GATA-1^S310A (human) [2] worked out at 25 fold.
